In publication doi:10.1101/2025.01.15.633177 (bioRxiv, 2025):
Values belong to the binder of their own block, whether it stands above or below them.

Assays:
Aurora-A kinase domain = target: T1, Aurora-A kinase domain (UniProt O14965 122-403, C290A;K339C;C393A); assay: EMSA
T1 sequence: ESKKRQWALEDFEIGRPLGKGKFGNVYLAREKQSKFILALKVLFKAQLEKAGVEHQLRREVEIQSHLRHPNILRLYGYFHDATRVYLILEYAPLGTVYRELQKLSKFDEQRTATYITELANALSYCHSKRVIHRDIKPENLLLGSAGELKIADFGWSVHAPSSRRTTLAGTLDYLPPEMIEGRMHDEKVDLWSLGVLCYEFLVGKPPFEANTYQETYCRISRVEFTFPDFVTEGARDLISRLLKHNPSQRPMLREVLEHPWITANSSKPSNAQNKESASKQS

[1] = target: T2, Aurora-A 1-403, unphosphorylated (UniProt O14965 1-403); assay: pull-down
T2 sequence: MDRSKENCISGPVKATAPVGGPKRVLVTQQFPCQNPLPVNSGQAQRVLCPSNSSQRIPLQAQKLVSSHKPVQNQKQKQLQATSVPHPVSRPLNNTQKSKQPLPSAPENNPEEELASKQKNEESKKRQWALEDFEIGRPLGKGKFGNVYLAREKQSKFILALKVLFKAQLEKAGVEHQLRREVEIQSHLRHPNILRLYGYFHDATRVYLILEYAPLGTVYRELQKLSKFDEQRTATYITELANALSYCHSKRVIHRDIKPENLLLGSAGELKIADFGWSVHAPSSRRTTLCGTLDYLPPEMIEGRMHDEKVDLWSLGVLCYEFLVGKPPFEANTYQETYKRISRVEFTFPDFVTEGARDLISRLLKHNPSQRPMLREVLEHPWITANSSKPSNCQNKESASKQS

[2] = target: T3, unphosphorylated Aurora-A 1-403 (UniProt O14965 1-403); assay: pull-down
T3 sequence: T2 sequence

B1: UGhigh RNA, Cy5 (ssRNA)
RNA: UGCUGGGAUGGUCAUGGUGGGUGACCCUGGGAUGGCCGCGGUGGGUGACCCUGGAAUGGU
- binding result (Aurora-A kinase domain): binds

B2: UGhigh RNA, biotin (ssRNA)
RNA: B1 RNA
- binding result [1]: binds

- binding result [2]: binds
B3: 3xFLAG-MYCN 1-137 (domain or fragment)
chain: MPSCSTSTMPGMICKNPDLEFDSLQPCFYPDEDDFYFGGPDSTPPGEDIWKKFELLPTPPLSPSRGFAEHSSEPPSWVTEMLLENELWGSPAEEDAFGLGGLGGLTPNPVILQDCMWSGFSAREKLERAVSEKLQHG
